Measured values from PMC4765350.

Tests used:
[1] = target: BtuC2D2 (E. coli vitamin B12 ABC transporter, core transporter: ATPase + permease) (E. coli) (UniProt P06609); assay: SPR; His-BtuC2D2 that had worked (100 uM ATP, 1 mM MgCl2) for 7 hours, nucleotides removed, immobilised on a Ni-NTA chip; apo FLAG-BtuF injected at 0.1-2 uM; 25 °C, 50 mM Tris-HCl pH 7.5, 150 mM NaCl, 0.1% LDAO
[2] = target: BtuC2D2 (E. coli vitamin B12 ABC transporter, core transporter: ATPase + permease) (E. coli) (UniProt P06609)
[3] = target: BtuC2D2 (E. coli vitamin B12 ABC transporter, core transporter: ATPase + permease) (E. coli) (UniProt P06609); assay: SPR; fresh (naive) His-BtuC2D2 (1500-2000 RU) immobilised on a Ni-NTA chip, apo FLAG-BtuF injected at 0.1-2 uM; Biacore T200, 25 °C, 50 mM Tris-HCl pH 7.5, 150 mM NaCl, 0.1% LDAO, 15 uL/min

Sequence of UniProt P06609 (P06609 whole entry, chain 1 of 2): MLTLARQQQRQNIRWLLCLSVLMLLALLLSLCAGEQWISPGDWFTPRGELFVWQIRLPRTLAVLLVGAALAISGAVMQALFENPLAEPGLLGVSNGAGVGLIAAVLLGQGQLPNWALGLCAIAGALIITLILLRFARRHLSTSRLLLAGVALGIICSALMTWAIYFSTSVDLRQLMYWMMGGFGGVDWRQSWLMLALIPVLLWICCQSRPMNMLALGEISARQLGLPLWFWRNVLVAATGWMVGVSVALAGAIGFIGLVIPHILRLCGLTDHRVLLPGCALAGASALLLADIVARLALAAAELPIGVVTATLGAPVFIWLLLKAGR
Sequence of UniProt P06609 (P06611 whole entry, chain 2 of 2, further chain): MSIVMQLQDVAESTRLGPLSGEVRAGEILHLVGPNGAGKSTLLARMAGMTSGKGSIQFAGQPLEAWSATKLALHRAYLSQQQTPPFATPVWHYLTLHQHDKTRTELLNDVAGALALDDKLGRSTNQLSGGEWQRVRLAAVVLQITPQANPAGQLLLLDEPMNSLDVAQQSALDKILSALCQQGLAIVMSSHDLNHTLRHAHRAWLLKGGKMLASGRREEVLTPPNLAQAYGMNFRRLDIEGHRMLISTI

Kd [1]: 0.037 nM
improvement of BtuF binding of worked over fresh BtuC2D2 [1]: 35 to 60%
koff [1]: 1.1e-05 s⁻¹
kon [1]: 290000 M⁻¹ s⁻¹
uptake rate of 57Co vitamin B12 into proteoliposomes, BtuC2D2 that had worked 7 hours against its fresh precursor [2]: 60%
Kd [3]: 0.036 nM
koff [3]: 1.2e-05 s⁻¹
kon [3]: 280000 M⁻¹ s⁻¹
B1: BtuF, substrate binding protein (SBP) of the vitamin B12 transport system, FLAG-tagged (natural protein)
chain: APRVITLSPANTELAFAAGITPVGVSSYSDYPPQAQKIEQVSTWQGMNLERIVALKPDLVIAWRGGNAERQVDQLASLGIKVMWVDATSIEQIANALRQLAPWSPQPDKAEQAAQSLLDQYAQLKAQYADKPKKRVFLQFGINPPFTSGKESIQNQVLEVCGGENIFKDSRVPWPQVSREQVLARSPQAIVITGGPDQIPKIKQYWGEQLKIPVIPLTSDWFERASPRIILAAQQLCNALSQVD
